Experimental data as given in article PMC8631942.
Where “and” joins values, the source holds several entries; their conditions need not be identical. Identical values can stand only once.

What was measured:
[1] = target: pre-phosphorylated His10-PD-1 ICD (aa 194-288) PD-1^FY (human) (UniProt Q15116); assay: SPR; OpenSPR (Nicoya); pre-phosphorylated His10-tagged PD-1 ICD or BTLA ICD tyrosine mutant immobilised on a Ni sensor chip (about 1500 RU); SH2 injected at 20-1000 nM, 20 ul/min; 20 mM HEPES, 150 mM NaCl, 5 mM imidazole, 0.05% Tween-20, 10% glycerol, pH 7.5; equilibrium fit ('Evaluate EC50', TraceDrawer); three independent repeats on different chips
[2] = target: pre-phosphorylated His10-BTLA ICD (aa 190-289) triple-tyrosine-mutant FFYF (human) (UniProt Q7Z6A9); assay: as above
[3] = target: pre-phosphorylated His10-BTLA ICD (aa 190-289) triple-tyrosine-mutant FFFY (human) (UniProt Q7Z6A9); assay: as above
[4] = target: His10-BTLA^ICD BTLA^FFYF, pre-phosphorylated (human) (UniProt Q7Z6A9); assay: SPR; OpenSPR (Nicoya); pre-phosphorylated His10-tagged PD-1 or BTLA ICD immobilised on a Ni sensor chip (about 1500 RU); SH2 injected at 20-1000 nM, 20 μl/min; 20 mM HEPES, 150 mM NaCl, 5 mM imidazole, 0.05% Tween-20, 10% glycerol, pH 7.5; equilibrium analysis (Evaluate EC50, TraceDrawer)
[5] = target: pre-phosphorylated His10-PD-1 ICD (aa 194-288) PD-1^YF (human) (UniProt Q15116); assay: SPR; OpenSPR (Nicoya); pre-phosphorylated His10-tagged PD-1 ICD or BTLA ICD tyrosine mutant immobilised on a Ni sensor chip (about 1500 RU); SH2 injected at 20-1000 nM, 20 ul/min; 20 mM HEPES, 150 mM NaCl, 5 mM imidazole, 0.05% Tween-20, 10% glycerol, pH 7.5; equilibrium fit ('Evaluate EC50', TraceDrawer); three independent repeats on different chips
[6] = target: His10-PD-1^ICD PD-1^YF, pre-phosphorylated (human) (UniProt Q15116); assay: SPR; OpenSPR (Nicoya); pre-phosphorylated His10-tagged PD-1 or BTLA ICD immobilised on a Ni sensor chip (about 1500 RU); SH2 injected at 20-1000 nM, 20 μl/min; 20 mM HEPES, 150 mM NaCl, 5 mM imidazole, 0.05% Tween-20, 10% glycerol, pH 7.5; equilibrium analysis (Evaluate EC50, TraceDrawer)
[7] = target: His10-PD-1^ICD PD-1^FY, pre-phosphorylated (human) (UniProt Q15116); assay: as above

Row | Kd [1] | Kd [2] | Kd [5] | Substance | also measured
1 | 1100 nM and 660 nM and 3200 nM | 2000 nM and 1600 nM | – | SNAP-SHP1-cSH2 (from UniProt P29350 1-595) (domain or fragment) | Kd [3]: 760 nM and 1200 nM and 610 nM
2 | – | – | – | SNAP-SHP1-nSH2 (domain or fragment) | Kd [4]: 64 nM
3 | 72 nM and 110 nM and 88.3 nM | 50 nM and 73 nM and 68 nM | 200 nM and 210 nM and 400 nM | SNAP-SHP1-nSH2 (from UniProt P29350 1-595) (domain or fragment) | –
4 | – | – | – | SNAP-SHP2-cSH2 (domain or fragment) | Kd [6]: 1400 nM; Kd [7]: 100 nM
5 | 83 nM and 77 nM and 130 nM | – | 1900 nM and 770 nM and 1400 nM | SNAP-SHP2-cSH2 (from UniProt Q06124 1-593) (domain or fragment) | –
6 | – | – | – | SNAP-SHP2-nSH2 (domain or fragment) | Kd [6]: 380 nM; Kd [7]: 140 nM
7 | 120 nM and 110 nM and 200 nM | 430 nM and 270 nM | 270 nM and 420 nM and 460 nM | SNAP-SHP2-nSH2 (from UniProt Q06124 1-593) (domain or fragment) | –
